Legend:
[1] = biological target: hCG (LH/CG) receptor of MA-10 transformed murine Leydig cells (murine) (UniProt P30730); assay: cell-based or functional assay
[2] = biological target: human TSH receptor (CHO-JP09 cells) (human) (UniProt P16473); assay: cell-based or functional assay
[3] = biological target: porcine TSH receptor (solubilized porcine thyroid membranes) (porcine) (UniProt Q8SPP9); assay: competitive displacement of 125I-bTSH from solubilized porcine thyroid membranes
[4] = biological target: porcine TSH receptor (solubilized porcine thyroid membranes) (porcine) (UniProt Q8SPP9); assay: competitive binding assay to porcine thyroid membranes
[5] = biological target: rat TSH receptor (FRTL-5 cells) (rat) (UniProt P21463); assay: cell-based or functional assay
[6] = biological target: hCG (LH/CG) receptor of MA-10 transformed murine Leydig cells (murine) (UniProt P30730); assay: competitive binding with 125I-hCG on MA-10 cells

Sequence of hCG (LH/CG) receptor of MA-10 transformed murine Leydig cells (murine) (P30730 27-700): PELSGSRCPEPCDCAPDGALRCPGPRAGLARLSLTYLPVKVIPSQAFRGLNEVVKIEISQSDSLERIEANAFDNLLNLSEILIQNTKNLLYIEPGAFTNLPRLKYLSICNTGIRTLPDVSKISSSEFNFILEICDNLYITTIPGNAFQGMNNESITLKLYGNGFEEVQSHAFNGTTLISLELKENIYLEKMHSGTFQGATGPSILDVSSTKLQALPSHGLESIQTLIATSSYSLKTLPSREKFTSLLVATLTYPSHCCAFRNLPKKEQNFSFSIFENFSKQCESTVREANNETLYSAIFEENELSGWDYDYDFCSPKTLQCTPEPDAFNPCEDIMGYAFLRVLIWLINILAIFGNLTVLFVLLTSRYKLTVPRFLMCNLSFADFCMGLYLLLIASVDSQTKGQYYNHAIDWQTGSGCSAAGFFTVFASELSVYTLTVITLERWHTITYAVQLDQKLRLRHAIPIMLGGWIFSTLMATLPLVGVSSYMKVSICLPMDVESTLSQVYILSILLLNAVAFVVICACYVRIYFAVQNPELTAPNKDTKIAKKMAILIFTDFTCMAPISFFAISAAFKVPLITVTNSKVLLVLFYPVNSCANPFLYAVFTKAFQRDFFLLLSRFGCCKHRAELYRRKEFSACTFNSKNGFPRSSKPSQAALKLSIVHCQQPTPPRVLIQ
Sequence of rat TSH receptor (FRTL-5 cells) (rat) (P21463 22-764): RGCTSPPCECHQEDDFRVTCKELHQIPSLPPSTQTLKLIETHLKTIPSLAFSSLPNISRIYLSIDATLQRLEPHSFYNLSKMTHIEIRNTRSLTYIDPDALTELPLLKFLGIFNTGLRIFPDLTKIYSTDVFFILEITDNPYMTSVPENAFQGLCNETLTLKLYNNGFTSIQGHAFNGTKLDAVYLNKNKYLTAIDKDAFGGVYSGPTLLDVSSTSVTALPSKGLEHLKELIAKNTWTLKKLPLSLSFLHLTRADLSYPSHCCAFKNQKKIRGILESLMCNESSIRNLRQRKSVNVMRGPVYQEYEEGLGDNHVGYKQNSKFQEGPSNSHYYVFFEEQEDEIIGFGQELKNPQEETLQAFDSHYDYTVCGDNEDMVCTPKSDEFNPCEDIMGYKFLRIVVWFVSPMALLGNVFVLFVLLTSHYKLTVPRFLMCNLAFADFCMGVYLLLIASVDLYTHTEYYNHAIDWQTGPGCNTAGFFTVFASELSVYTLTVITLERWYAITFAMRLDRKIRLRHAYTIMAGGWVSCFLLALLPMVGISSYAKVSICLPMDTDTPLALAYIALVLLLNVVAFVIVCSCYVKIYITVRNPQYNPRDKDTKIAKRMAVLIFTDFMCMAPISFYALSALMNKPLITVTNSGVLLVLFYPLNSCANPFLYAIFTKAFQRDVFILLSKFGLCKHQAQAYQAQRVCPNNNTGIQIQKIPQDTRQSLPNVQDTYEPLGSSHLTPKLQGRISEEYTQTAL
Sequence of porcine TSH receptor (solubilized porcine thyroid membranes) (porcine) (Q8SPP9 22-764): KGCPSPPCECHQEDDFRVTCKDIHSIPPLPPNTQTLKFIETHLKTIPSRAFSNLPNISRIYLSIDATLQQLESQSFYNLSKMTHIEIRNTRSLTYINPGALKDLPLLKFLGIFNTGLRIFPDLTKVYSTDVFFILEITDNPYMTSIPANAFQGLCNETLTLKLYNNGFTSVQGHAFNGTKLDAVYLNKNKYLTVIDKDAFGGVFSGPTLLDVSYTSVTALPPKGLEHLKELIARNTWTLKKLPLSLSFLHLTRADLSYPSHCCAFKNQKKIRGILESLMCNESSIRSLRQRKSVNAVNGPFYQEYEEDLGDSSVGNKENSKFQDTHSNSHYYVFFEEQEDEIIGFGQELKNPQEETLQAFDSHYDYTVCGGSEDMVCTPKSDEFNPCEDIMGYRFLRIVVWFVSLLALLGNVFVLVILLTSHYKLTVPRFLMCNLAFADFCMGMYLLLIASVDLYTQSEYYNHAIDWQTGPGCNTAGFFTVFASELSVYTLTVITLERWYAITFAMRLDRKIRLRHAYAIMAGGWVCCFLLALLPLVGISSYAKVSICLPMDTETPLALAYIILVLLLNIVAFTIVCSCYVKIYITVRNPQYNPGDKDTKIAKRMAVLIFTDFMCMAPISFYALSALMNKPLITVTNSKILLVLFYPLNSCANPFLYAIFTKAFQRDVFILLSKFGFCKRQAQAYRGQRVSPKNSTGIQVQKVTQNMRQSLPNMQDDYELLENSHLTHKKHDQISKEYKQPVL

hCG α-subunit double mutant P16K + Q20K (from UniProt P01215 25-116; P0DN86 21-165) (ligand)
Progesterone synthesis in MA10 cells, EC50 [1]: 1.7 ng/mL
Progesterone synthesis in MA10 cells, Max (%) [1]: 212 % of WT-hCG

hCG α-subunit mutant Q20K (from UniProt P01215 25-116; P0DN86 21-165) (ligand)
Progesterone synthesis in MA10 cells, EC50 [1]: 2.98 ng/mL
Progesterone synthesis in MA10 cells, Max (%) [1]: 134 % of WT-hCG

hTSH α-subunit mutant T11K (from UniProt P01215 25-116; P01222 21-132) (ligand)
cAMP stimulation in JP09 cells, EC50 [2]: 4.47 ng/mL
cAMP stimulation in JP09 cells, Relative potency (WT = 1) (fold (WT = 1)) [2]: 1.5
EC25 of inhibition of 125I-bTSH binding [3]: 68.3 ng/mL

hTSH α-subunit mutant Q20K (from UniProt P01215 25-116; P01222 21-132) (ligand)
cAMP stimulation in JP09 cells, EC50 [2]: 1.16 ng/mL
cAMP stimulation in JP09 cells, Relative potency (WT = 1) (fold (WT = 1)) [2]: 5.8
EC25 of inhibition of 125I-bTSH binding [3]: 21.3 ng/mL

hCG α-subunit quadruple mutant Q13K + P16K + Q20K + E14K (from UniProt P01215 25-116; P0DN86 21-165) (ligand)
Progesterone synthesis in MA10 cells, EC50 [1]: 1.65 ng/mL
Progesterone synthesis in MA10 cells, Max (%) [1]: 205 % of WT-hCG

hTSH α-subunit mutant P16K (from UniProt P01215 25-116; P01222 21-132) (ligand)
cAMP stimulation in JP09 cells, EC50 [2]: 1.05 ng/mL
cAMP stimulation in JP09 cells, Relative potency (WT = 1) (fold (WT = 1)) [2]: 6.4
EC25 of inhibition of 125I-bTSH binding [3]: 18.3 ng/mL
fold greater affinity than WT-hTSH [4]: 5 fold

hCG α-subunit triple mutant Q13K + P16K + Q20K (from UniProt P01215 25-116; P0DN86 21-165) (ligand)
Progesterone synthesis in MA10 cells, EC50 [1]: 1.58 ng/mL
Progesterone synthesis in MA10 cells, Max (%) [1]: 216 % of WT-hCG

hTSH mutant TSHβ-L69R + α Q13K + P16K + Q20K (from UniProt P01215 25-116; P01222 21-132) (ligand)
fold lower concentration than WT-hTSH for half-maximal stimulation of 3H-thymidine incorporation in FRTL-5 cells [5]: 27 fold
cAMP stimulation in JP09 cells, EC50 [2]: 0.19 ng/mL
cAMP stimulation in JP09 cells, Relative potency (WT = 1) (fold (WT = 1)) [2]: 35.3
EC25 of inhibition of 125I-bTSH binding [3]: 1.8 ng/mL

hTSH α-subunit mutant R67K (from UniProt P01215 25-116; P01222 21-132) (ligand)
cAMP stimulation in JP09 cells, EC50 [2]: 7.36 ng/mL
cAMP stimulation in JP09 cells, Relative potency (WT = 1) (fold (WT = 1)) [2]: 0.9
EC25 of inhibition of 125I-bTSH binding [3]: 62.5 ng/mL

hTSH β-subunit mutant TSHβ-L69R (from UniProt P01215 25-116; P01222 21-132) (ligand)
cAMP stimulation in JP09 cells, EC50 [2]: 2.75 ng/mL
cAMP stimulation in JP09 cells, Relative potency (WT = 1) (fold (WT = 1)) [2]: 2.4

hCG α-subunit mutant T11K (from UniProt P01215 25-116; P0DN86 21-165) (ligand)
Progesterone synthesis in MA10 cells, EC50 [1]: 2.79 ng/mL
Progesterone synthesis in MA10 cells, Max (%) [1]: 156 % of WT-hCG

hTSH β-subunit mutant I58R+E63R+L69R (from UniProt P01215 25-116; P01222 21-132) (ligand)
efficacy relative to wild type hTSH (cAMP stimulation, FIG. 2g) [2]: 1.7 fold
potency relative to wild type hTSH (cAMP stimulation, FIG. 2g) [2]: 50 fold

hTSH α-subunit quadruple mutant Q13K + P16K + Q20K + E14K (from UniProt P01215 25-116; P01222 21-132) (ligand)
cAMP stimulation in JP09 cells, EC50 [2]: 0.17 ng/mL
cAMP stimulation in JP09 cells, Relative potency (WT = 1) (fold (WT = 1)) [2]: 39.4
efficacy (maximal response) of cAMP stimulation in CHO-JP09 cells, fold over WT-hTSH [2]: 1.5 fold
EC25 of inhibition of 125I-bTSH binding [3]: 2.1 ng/mL

hTSH α-subunit mutant P16K + F17T (from UniProt P01215 25-116; P01222 21-132) (ligand)
cAMP stimulation in JP09 cells, EC50 [2]: 3.52 ng/mL
cAMP stimulation in JP09 cells, Relative potency (WT = 1) (fold (WT = 1)) [2]: 1.9

hCG α-subunit mutant R67K (from UniProt P01215 25-116; P0DN86 21-165) (ligand)
Progesterone synthesis in MA10 cells, EC50 [1]: 4.6 ng/mL
Progesterone synthesis in MA10 cells, Max (%) [1]: 145 % of WT-hCG

hTSH mutant TSHβ-L69R + α Q13K + P16K + Q20K + E14K (from UniProt P01215 25-116; P01222 21-132) (ligand)
cAMP stimulation in JP09 cells, EC50 [2]: 0.07 ng/mL
cAMP stimulation in JP09 cells, Relative potency (WT = 1) (fold (WT = 1)) [2]: 95.7
efficacy (maximal response) of cAMP stimulation in CHO-JP09 cells, fold over WT-hTSH [2]: 1.5 fold
EC25 of inhibition of 125I-bTSH binding [3]: 1.3 ng/mL

hCG α-subunit mutant P16K with WT-hCGβ (from UniProt P01215 25-116; P0DN86 21-165) (ligand)
fold receptor binding activity over WT-hCG [6]: 4 fold
Progesterone synthesis in MA10 cells, EC50 [1]: 2.05 ng/mL
Progesterone synthesis in MA10 cells, Max (%) [1]: 161 % of WT-hCG
progesterone release assay, fold potency over wild type [1]: 3.4 fold
stimulation of progesterone production in MA-10 cells, fold over WT-hCG [1]: 4 fold

hTSH α-subunit double mutant P16K + Q20K (from UniProt P01215 25-116; P01222 21-132) (ligand)
cAMP stimulation in JP09 cells, EC50 [2]: 0.57 ng/mL
cAMP stimulation in JP09 cells, Relative potency (WT = 1) (fold (WT = 1)) [2]: 11.8
EC25 of inhibition of 125I-bTSH binding [3]: 6.4 ng/mL

hTSH α-subunit mutant Q13K (from UniProt P01215 25-116; P01222 21-132) (ligand)
cAMP stimulation in JP09 cells, EC50 [2]: 1.89 ng/mL
cAMP stimulation in JP09 cells, Relative potency (WT = 1) (fold (WT = 1)) [2]: 3.5
EC25 of inhibition of 125I-bTSH binding [3]: 22.5 ng/mL

hCG α-subunit mutant Q13K (from UniProt P01215 25-116; P0DN86 21-165) (ligand)
Progesterone synthesis in MA10 cells, EC50 [1]: 2.46 ng/mL
Progesterone synthesis in MA10 cells, Max (%) [1]: 115 % of WT-hCG

hTSH β-subunit mutant E63R (from UniProt P01215 25-116; P01222 21-132) (ligand)
potency relative to hTSH [5]: 2 to 4 fold
potency relative to hTSH [2]: 2 to 4 fold

hTSH α-subunit triple mutant Q13K + P16K + Q20K with WT-hTSHβ (from UniProt P01215 25-116; P01222 21-132) (ligand)
fold lower concentration than WT-hTSH for half-maximal stimulation of 3H-thymidine incorporation in FRTL-5 cells [5]: 18 fold
cAMP stimulation in JP09 cells, EC50 [2]: 0.28 ng/mL
cAMP stimulation in JP09 cells, Relative potency (WT = 1) (fold (WT = 1)) [2]: 23.9
EC25 of inhibition of 125I-bTSH binding [3]: 2.3 ng/mL

hTSH β-subunit mutant I58R+E63R (from UniProt P01215 25-116; P01222 21-132) (ligand)
efficacy relative to wild type hTSH (cAMP stimulation, FIG. 2g) [2]: 1.5 fold
potency relative to wild type hTSH (cAMP stimulation, FIG. 2g) [2]: 15 fold

hTSH β-subunit mutant I58R (from UniProt P01215 25-116; P01222 21-132) (ligand)
potency relative to hTSH [5]: 2 to 4 fold
potency relative to hTSH [2]: 2 to 4 fold

hCG α-subunit mutant Q50P (from UniProt P01215 25-116; P0DN86 21-165) (ligand)
Progesterone synthesis in MA10 cells, EC50 [1]: 3.9 ng/mL
Progesterone synthesis in MA10 cells, Max (%) [1]: 137 % of WT-hCG

hTSH α-subunit mutant Q50P (from UniProt P01215 25-116; P01222 21-132) (ligand)
cAMP stimulation in JP09 cells, EC50 [2]: 5.54 ng/mL
cAMP stimulation in JP09 cells, Relative potency (WT = 1) (fold (WT = 1)) [2]: 1.2
EC25 of inhibition of 125I-bTSH binding [3]: 77.5 ng/mL

— US7070788
